Kd data for one molecule are collected here from article PMC8599909.

The target in this series is T1, PUS7(Δ1-98) (Homo sapiens, UniProt Q96PZ0 99-661, del1-98).
T1 sequence: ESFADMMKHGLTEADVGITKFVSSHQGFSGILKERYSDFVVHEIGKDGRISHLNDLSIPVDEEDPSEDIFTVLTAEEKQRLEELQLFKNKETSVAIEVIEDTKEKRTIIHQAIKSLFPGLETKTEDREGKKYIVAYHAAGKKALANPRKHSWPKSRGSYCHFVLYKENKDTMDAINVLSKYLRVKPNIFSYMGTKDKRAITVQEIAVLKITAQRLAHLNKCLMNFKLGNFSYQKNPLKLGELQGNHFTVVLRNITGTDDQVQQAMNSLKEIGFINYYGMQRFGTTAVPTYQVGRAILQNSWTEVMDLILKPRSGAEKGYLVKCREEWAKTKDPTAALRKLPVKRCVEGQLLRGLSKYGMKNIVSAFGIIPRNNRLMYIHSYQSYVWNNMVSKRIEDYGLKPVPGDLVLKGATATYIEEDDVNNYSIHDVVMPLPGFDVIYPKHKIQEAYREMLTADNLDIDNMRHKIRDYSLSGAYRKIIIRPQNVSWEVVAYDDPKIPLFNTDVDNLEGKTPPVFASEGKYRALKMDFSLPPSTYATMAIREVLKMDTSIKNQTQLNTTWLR
Description: filter binding.

B1: 18mer-cy-tRNAGln (ssRNA)
RNA: GGGGCCCCAUGGUGUAAUGG
The term Kd denotes the equilibrium constant for the complex coming apart. Low readings indicate a tighter complex, high ones a looser complex. Molecule B1 gave a Kd of 267 ± 91 nM.
